# From patent US20160075743A1 (AGRESEARCH, published 2016)
# T1: Yersinia entomophaga YenB (TcB component of the Yen-Tc toxin complex) (Yersinia entomophaga, UniProt B6A880 1-1487)
# T1 sequence: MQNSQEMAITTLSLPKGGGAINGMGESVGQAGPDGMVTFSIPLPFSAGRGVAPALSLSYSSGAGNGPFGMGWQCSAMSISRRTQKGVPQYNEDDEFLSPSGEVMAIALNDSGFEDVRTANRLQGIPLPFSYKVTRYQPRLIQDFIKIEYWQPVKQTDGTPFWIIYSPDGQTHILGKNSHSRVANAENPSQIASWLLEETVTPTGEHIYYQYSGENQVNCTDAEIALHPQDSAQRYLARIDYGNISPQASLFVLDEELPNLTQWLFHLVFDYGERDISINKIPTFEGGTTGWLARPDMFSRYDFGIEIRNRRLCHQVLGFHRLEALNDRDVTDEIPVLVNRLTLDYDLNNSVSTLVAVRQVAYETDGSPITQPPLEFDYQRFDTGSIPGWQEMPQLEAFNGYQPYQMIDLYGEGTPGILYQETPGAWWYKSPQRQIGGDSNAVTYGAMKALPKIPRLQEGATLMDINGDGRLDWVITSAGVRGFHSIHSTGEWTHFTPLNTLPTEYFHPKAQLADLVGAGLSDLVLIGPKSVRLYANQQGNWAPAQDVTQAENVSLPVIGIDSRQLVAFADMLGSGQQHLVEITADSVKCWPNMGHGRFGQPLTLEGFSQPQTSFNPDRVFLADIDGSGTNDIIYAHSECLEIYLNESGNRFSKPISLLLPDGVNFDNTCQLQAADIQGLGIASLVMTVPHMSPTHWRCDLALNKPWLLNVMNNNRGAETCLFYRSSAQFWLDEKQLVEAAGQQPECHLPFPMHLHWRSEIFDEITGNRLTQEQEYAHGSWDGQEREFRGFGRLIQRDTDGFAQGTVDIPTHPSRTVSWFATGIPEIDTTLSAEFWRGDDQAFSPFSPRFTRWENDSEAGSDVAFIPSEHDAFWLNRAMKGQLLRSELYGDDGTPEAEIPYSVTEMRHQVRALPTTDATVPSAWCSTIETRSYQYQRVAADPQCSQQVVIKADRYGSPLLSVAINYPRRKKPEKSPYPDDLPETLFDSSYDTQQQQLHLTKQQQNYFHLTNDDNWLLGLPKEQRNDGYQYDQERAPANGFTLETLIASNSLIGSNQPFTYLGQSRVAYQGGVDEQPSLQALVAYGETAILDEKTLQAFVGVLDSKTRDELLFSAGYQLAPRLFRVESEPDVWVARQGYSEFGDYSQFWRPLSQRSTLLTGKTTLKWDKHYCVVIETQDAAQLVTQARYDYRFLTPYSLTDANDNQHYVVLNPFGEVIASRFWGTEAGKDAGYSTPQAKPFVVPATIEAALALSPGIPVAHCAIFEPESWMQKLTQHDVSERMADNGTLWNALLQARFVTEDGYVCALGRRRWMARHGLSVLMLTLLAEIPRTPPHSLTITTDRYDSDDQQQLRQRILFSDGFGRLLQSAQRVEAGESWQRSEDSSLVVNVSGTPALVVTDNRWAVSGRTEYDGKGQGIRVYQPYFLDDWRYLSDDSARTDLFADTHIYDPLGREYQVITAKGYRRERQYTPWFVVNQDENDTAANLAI
# B1: conserved N-terminal 76 kDa portion of YenC2 (YenC2-N) (other)
# chain: MDIQLFSKTPSVTVFDNRGLSVRDIAYRRHPDTPKVTEECITYHQFDFRGFLAQSLDPRLNHKEVTNFSYLTDLNGNIIYTQSVDAGNTLVLNDTEGRSVIAMTNISRGENGKDDLSLAVTRTFQYENAPLPGRPLSVTEQVNGENARITEHFVYAGNTPQEKNLNLAGQCVSYYDAAGLIQTDSVSLTGKPLSVSRKLLKNLDDTNILADWQGNDTSAWNSLLATEIYTTVTRTDAAGAVLTTIDAVGNQQRVAFDIAGQLSASWLTLKGGQEQVIIKVLTYSAAGQKLREEGGNGVVTTYTYEAETQRLIGIKTERPNGHAAGAKVLQDLRYEYDPVGNVLSITNDAEETRFWRNQKVVPENAYRYDSLYQLVSASGREVAGAGQQGSDLPSPLVPLPSDSSVYTNYTRTYTYDSAGNLMRIRHSAPATNNNYTLNITVSERSNRGVMSSLTENPADVDALFTASGSQKCLQQGQSLIWTPRGELRTVLLVARGETADDSESYRYDGSSQRILKISSQQTNHSARVQRALYLPGLEWRTMTGGVAEAENLQVICIGEAGRAQVRVLHWESGKPDGIINDQIRWSYDNLTCSSGLEVDGDGLVISMEEYYPYGGTAVWAARSHIETAYKTVRYSGKERDATGLYYYGFRYYQPWAGRWLSADPAGTVDGLNLYRMVRNNPLRLTDPDGM
# notes: Made by self-cleavage of YenC2 after M690 when co-expressed with YenB; The C-terminal fragment was removed at pH 4.5; also called YenC2NTR; YenC2 - N term
# B2: C-terminal region of YenC2 (YenC2-C) (other)
# chain: APLDWLDLDTTNASRDIVKAIYQLNQIDGPHRGVRDTYQRMTESTGMILQETLNNEAVLKGIKQKDKEKKSRGMKFTNSKLKTYAAHAGVLNTLQPDPVYKDGFLNLPGSLGNKNTFPGVELIEDKVKPSLSQYHPDKLGKSQRWKPESSLGYYRVADTEAFITGIRSQYKSSGTDLHAVVEGRIRDHLLANNNVLPKMAGIAGLHAEVQALNYIISNPDIEGGNAERLNGSYIFTQRLVGDVNQDFPACYNCSGIISGLENVMTGRVNNDVRLKRRKSF
# notes: also called YenC-C; TcC-C
# B3: Yersinia entomophaga YenC1 (TcC component) (other)
# chain: MNQFDSALHQGTPGVSVLDNRGHVIRELRYYRHPDTPQEIAERIAFHQYDSYGFISQSIDPRLAERRKQDSSVKPNLSYFTALSGEVLRTDGVDAGTIFSLNDIAARPAISISATGVSHTWQYEGENRPGRVLSRSEREKDREERIIERFYWAGSDASQKANNLAGQCLRHYNSAGLNQTLSIALTGTPISACFQPLLESAEPEWQGTNESAWLELLTPEIFTTYNRADANGETLVQTDAMGNIQRLAYDVAGFLKSSWLSLKGGQEQIIVKSLTYSAAGQKLQEEHGNGVLTTYSYEAETQRLIGIRTERPAGHLSGARVFQDLRYTYDPVGNVLRITNDAEATRFWRNQKVVPENTYIYDTLYQLVSANGREMANIPQQSSQLPTLSPIDNNAYTNYIRNYHYDSAGNLMQIRHTSAAANNSYTTNITVSKYSNRAVLSSLTDDVDKVEAFFDAAGRQNQLLPGQTLSWNARGELAKVTPVARDGQESDSETYRYDANSQRVSKMAIQQSNNNTQTRRVLYLAGLERRTIHQGNTLFETLLVVKIGEAGRAQVQAMHWELGQPTEVANDELRYSYDNLIGSSGLEVDGTGQLISQEEYYPYGGTAVWMARSQREASDKAYGYSGKERDATGLYYYGFRYYQPWAGRWLSADPAGTIDGLNLFRMVRNNPIVLHDPDGLAPGFFERISSFRKKDTLTISSLKGTGPFYTRSESEIDIDFLFSRQDRDKDFPPQNHKELSAEDRREVLEVSSGENITSANKSSKWYAGTHWETKPLKNNTDLVVLHNGVQGAAGININLNDIKPGRSVLVTAGTLTGCTMITGVKGNNFYALHAGTGTPSENWVTGEHGVTDNFRMLNKLIPDAGIDLNPEAVNDSLLTILDYFDNGTIAYNGKKGSEIHRDADNILNYRTTGYENTVGVSFSLLTKDKNGEVSASTLLELGELKPHKKHRTRGQFGMTELKYEARKNTVVKLR
# notes: Expressed as the whole protein; When co-expressed with YenB it auto-proteolyses into two fragments, and both co-elute with YenB
# B4: N-terminal portion of YenC1 (other)
# chain: MNQFDSALHQGTPGVSVLDNRGHVIRELRYYRHPDTPQEIAERIAFHQYDSYGFISQSIDPRLAERRKQDSSVKPNLSYFTALSGEVLRTDGVDAGTIFSLNDIAARPAISISATGVSHTWQYEGENRPGRVLSRSEREKDREERIIERFYWAGSDASQKANNLAGQCLRHYNSAGLNQTLSIALTGTPISACFQPLLESAEPEWQGTNESAWLELLTPEIFTTYNRADANGETLVQTDAMGNIQRLAYDVAGFLKSSWLSLKGGQEQIIVKSLTYSAAGQKLQEEHGNGVLTTYSYEAETQRLIGIRTERPAGHLSGARVFQDLRYTYDPVGNVLRITNDAEATRFWRNQKVVPENTYIYDTLYQLVSANGREMANIPQQSSQLPTLSPIDNNAYTNYIRNYHYDSAGNLMQIRHTSAAANNSYTTNITVSKYSNRAVLSSLTDDVDKVEAFFDAAGRQNQLLPGQTLSWNARGELAKVTPVARDGQESDSETYRYDANSQRVSKMAIQQSNNNTQTRRVLYLAGLERRTIHQGNTLFETLLVVKIGEAGRAQVQAMHWELGQPTEVANDELRYSYDNLIGSSGLEVDGTGQLISQEEYYPYGGTAVWMARSQREASDKAYGYSGKERDATGLYYYGFRYYQPWAGRWLSADPAGTIDGLNLFRMVRNNPIVLHDPDGL
# notes: Fragment left in complex with YenB after the C-terminal domain precipitated at low pH; also called YenC1 - N term; N-terminal portions of YenC
# B5: Yersinia entomophaga YenC2 (TcC component) (other)
# chain: MDIQLFSKTPSVTVFDNRGLSVRDIAYRRHPDTPKVTEECITYHQFDFRGFLAQSLDPRLNHKEVTNFSYLTDLNGNIIYTQSVDAGNTLVLNDTEGRSVIAMTNISRGENGKDDLSLAVTRTFQYENAPLPGRPLSVTEQVNGENARITEHFVYAGNTPQEKNLNLAGQCVSYYDAAGLIQTDSVSLTGKPLSVSRKLLKNLDDTNILADWQGNDTSAWNSLLATEIYTTVTRTDAAGAVLTTIDAVGNQQRVAFDIAGQLSASWLTLKGGQEQVIIKVLTYSAAGQKLREEGGNGVVTTYTYEAETQRLIGIKTERPNGHAAGAKVLQDLRYEYDPVGNVLSITNDAEETRFWRNQKVVPENAYRYDSLYQLVSASGREVAGAGQQGSDLPSPLVPLPSDSSVYTNYTRTYTYDSAGNLMRIRHSAPATNNNYTLNITVSERSNRGVMSSLTENPADVDALFTASGSQKCLQQGQSLIWTPRGELRTVLLVARGETADDSESYRYDGSSQRILKISSQQTNHSARVQRALYLPGLEWRTMTGGVAEAENLQVICIGEAGRAQVRVLHWESGKPDGIINDQIRWSYDNLTCSSGLEVDGDGLVISMEEYYPYGGTAVWAARSHIETAYKTVRYSGKERDATGLYYYGFRYYQPWAGRWLSADPAGTVDGLNLYRMVRNNPLRLTDPDGMAPLDWLDLDTTNASRDIVKAIYQLNQIDGPHRGVRDTYQRMTESTGMILQETLNNEAVLKGIKQKDKEKKSRGMKFTNSKLKTYAAHAGVLNTLQPDPVYKDGFLNLPGSLGNKNTFPGVELIEDKVKPSLSQYHPDKLGKSQRWKPESSLGYYRVADTEAFITGIRSQYKSSGTDLHAVVEGRIRDHLLANNNVLPKMAGIAGLHAEVQALNYIISNPDIEGGNAERLNGSYIFTQRLVGDVNQDFPACYNCSGIISGLENVMTGRVNNDVRLKRRKSF
# notes: Expressed as the whole protein; When co-expressed with YenB it self-cleaves after M690 into YenC2-N and YenC2-C, and both fragments stay in the complex
# Legend:
# [1] = target: T1, Yersinia entomophaga YenB (TcB …); test: X-ray crystal structure (figure legend)
# [2] = target: T2, YenB/YenC2-N complex (hollow shell) (Yersinia entomophaga, UniProt B6A880 1-1487; B6A882 1-690); test: SAXS and crystal structure; encapsulation in the shell
# T2 construct: Heterodimer of YenB and YenC2-N. It is used here as the partner that encapsulates YenC2-C or GFP; also called TcB:TcC shell; BC shell
# [3] = target: T1, Yersinia entomophaga YenB (TcB …); test: co-expression in E. coli, size-exclusion chromatography
# [4] = target: T1, Yersinia entomophaga YenB (TcB …); test: purification after precipitation of the C-terminal domain at pH 4.5-5.0
# [5] = target: T1, Yersinia entomophaga YenB (TcB …); test: co-expression, co-purification by Ni-affinity and SEC
binder,measurement,setting,value
B1,binding result,[1],binds
B2,binding result,[2],binds
B3,binding result,[3],binds
B4,binding result,[4],binds
B5,binding result,[5],binds
